The values below come from patent publication US20120045438A1 (Janssen / Centocor, published 2012).

Experiment [1] has as its target T1, human IL-13 R130Q variant (R110Q of the mature chain) (human, UniProt P35225 35-146, Biotinylated on amines (NHS-LC-biotin, 4:1) in ELISA, panning and competition assays. The letters are unchanged.).
T1 construct: R130Q counts from Met 1 of the signal peptide, R110Q on the mature chain; Bought from Peprotech; also called IL-13 R110Q; b-R130Q
The experiment in a line: single-point (10 nM) phage Fab ELISA on biotinylated IL-13 R130Q. (In an ELISA, binding on a coated surface is turned into a signal by an enzyme label.)

Experiment [2] has as its target T1, human IL-13 R130Q variant (R110Q of the …). The experiment in a line: Ra2 binding inhibition ELISA, mAb in crude HEK293 supernatant, IL-13 binding to IL-13Ra2.

B1: Fab clone 2C06 (IL-13-62 library) (Fab, V domains shown)
VH: QVTLKESGPVLVKPTETLTLTCTVSGFSLSTYGMGVGWIRQPPGKALEWLAHIWWDDVKRYNPALKSRLTISKDTSKSQVVLTMTNMDPVDTATYYCARMGSDYDVWFDYWGQGTLVTVSS
VL: EIVLTQSPATLSLSPGERATLSCRASKSISKYLAWYQQKPGQAPRLLIYSGSTQQSGIPARFSGSGSGTDFTLTISSLEPEDFAVYYCQQHDYPYTFGQGTKLEIK
notes: Fab on phage pIX; del = residue deleted
Turning to B1, in experiment [1], the “Signal (% of Lc16Hc7)” value was determined as 128%.

B2: Fab clone 2B07 (IL-13-62 library) (Fab, V domains shown)
VH: QVTLKESGPVLVKPTETLTLTCTVSGFSLSTYGMGVGWIRQPPGKALEWLAHIWWDDVKRYNPALKSRLTISKDTSKSQVVLTMTNMDPVDTATYYCARMGSDYDVWFDYWGQGTLVTVSS
VL: EIVLTQSPATLSLSPGERATLSCRASKSISKYLAWYQQKPGQAPRLLIYSGSTLQSGIPARFSGSGSGTDFTLTISSLEPEDFAVYYCQQHDWGPYTFGQGTKLEIK
notes: Fab on phage pIX
On to B2, for which the “Signal (% of Lc16Hc7)” value in experiment [1] worked out at 144%.

B3: mAb with Lc 5B03 (Lc6 variant) and Hc2 (antibody, V domains shown)
VH: QVTLKESGPVLVKPTETLTLTCTVSGFSLSTYGMGVGWIRQPPGKALEWLAHIWWDDVKRYNPALKSRLTISKDTSKSQVVLTMTNMDPVDTATYYCARMGSDYDVWFDYWGQGTLVTVSS
VL: EIVLTQSPATLSLSPGERATLSCRASKSISKYLAWYQRKPGQAPRLLIYSGSTLQSGIPARFSGSGSGTDFTLTISSLEPEDFAVYYCQQHNEAPYTFGQGTKLEIK
notes: human IgG1
Take B3: the “% Ra2 Binding Inhibition” value in experiment [2] was found to be 63%.

B4: mAb with Lc 3E05 (Lc6 variant) and Hc2 (antibody, V domains shown)
VH: QVTLKESGPVLVKPTETLTLTCTVSGFSLSTYGMGVGWIRQPPGKALEWLAHIWWDDVKRYNPALKSRLTISKDTSKSQVVLTMTNMDPVDTATYYCARMGSDYDVWFDYWGQGTLVTVSS
VL: EIVLTQSPATLSLSPGERATLSCRASKSISKYLAWYQQKPGQAPRLLIYSGSTLQSGIPARFSGSGSGTDFTLTISSLEPEDFAVYYCQQPLDTPYTFGQGTKLEIK
notes: human IgG1
Regarding B4, the “% Ra2 Binding Inhibition” value in experiment [2] came out at 70.8%.

B5: mAb with Lc 3E03 (Lc6 variant) and Hc2 (antibody, V domains shown)
VH: QVTLKESGPVLVKPTETLTLTCTVSGFSLSTYGMGVGWIRQPPGKALEWLAHIWWDDVKRYNPALKSRLTISKDTSKSQVVLTMTNMDPVDTATYYCARMGSDYDVWFDYWGQGTLVTVSS
VL: EIVLTQSPATLSLSPGERATLSCRASKSISKYLAWYQQKPGQAPRLLIYSGSTLQSGIPARFSGSGSGTDFTLTISSLEPEDFAVYYCQQHNHGPYTFGQGTKLEIK
notes: human IgG1
Consider B5, for which the “% Ra2 Binding Inhibition” value in experiment [2] worked out at 70.9%.

B6: Fab clone 1A06 (IL-13-62 library) (Fab, V domains shown)
VH: QVTLKESGPVLVKPTETLTLTCTVSGFSLSTYGMGVGWIRQPPGKALEWLAHIWWDDVKRYNPALKSRLTISKDTSKSQVVLTMTNMDPVDTATYYCARMGSDYDVWFDYWGQGTLVTVSS
VL: EIVLTQSPATLSLSPGERATLSCRASKSISKYLAWYQQKPGQAPRLLIYSGSTLQSGIPARFSGSGSGTDFTLTISSLEPEDFAVYYCQQHEWGPYTFGQGTKLEIK
notes: Fab on phage pIX
For B6, the “Signal (% of Lc16Hc7)” value in experiment [1] is 122%.

B7: Fab clone 1A02 (IL-13-62 library) (Fab, V domains shown)
VH: QVTLKESGPVLVKPTETLTLTCTVSGFSLSTYGMGVGWIRQPPGKALEWLAHIWWDDVKRYNPALKSRLTISKDTSKSQVVLTMTNMDPVDTATYYCARMGSDYDVWFDYWGQGTLVTVSS
VL: EIVLTQSPATLSLSPGERATLSCRASKSISKYLAWYQQKPGQAPRLLIYSGSTLQSGIPARFSGSGSGTDFTLTISSLEPEDFAVYYCQQHSWAPYTFGQGTKLEIK
notes: Fab on phage pIX
Turning to B7, the “Signal (% of Lc16Hc7)” value in experiment [1] stood at 120%.

B8: Fab clone 1B05 (IL-13-62 library) (Fab, V domains shown)
VH: QVTLKESGPVLVKPTETLTLTCTVSGFSLSTYGMGVGWIRQPPGKALEWLAHIWWDDVKRYNPALKSRLTISKDTSKSQVVLTMTNMDPVDTATYYCARMGSDYDVWFDYWGQGTLVTVSS
VL: EIVLTQSPATLSLSPGERATLSCRASKSISKYLAWYQQKPGQAPRLLIYSGSTLQSGIPARFSGSGSGTDFTLTISSLEPEDFAVYYCQQHDRDPYTFGQGTKLEIK
notes: Fab on phage pIX
On to B8, for which the “Signal (% of Lc16Hc7)” value in experiment [1] worked out at 108%.

B9: mAb with Lc 5G02 (Lc6 variant) and Hc2 (antibody, V domains shown)
VH: QVTLKESGPVLVKPTETLTLTCTVSGFSLSTYGMGVGWIRQPPGKALEWLAHIWWDDVKRYNPALKSRLTISKDTSKSQVVLTMTNMDPVDTATYYCARMGSDYDVWFDYWGQGTLVTVSS
VL: EIVLTQSPATLSLSPGERATLSCRASKSISKYLAWYQQKPGQAPRLLIYSGSTLQGGIPARFSGSGSGTDFTLTISSLEPEDFAVYYCQQHLDSPYTFGQGTKLEIK
notes: human IgG1
For the molecule B9, in experiment [2], the “% Ra2 Binding Inhibition” value was found to be 66.2%.

B10: Fab clone 1A07 (IL-13-62 library) (Fab, V domains shown)
VH: QVTLKESGPVLVKPTETLTLTCTVSGFSLSTYGMGVGWIRQPPGKALEWLAHIWWDDVKRYNPALKSRLTISKDTSKSQVVLTMTNMDPVDTATYYCARMGSDYDVWFDYWGQGTLVTVSS
VL: EIVLTQSPATLSLSPGERATLSCRASKSISKYLAWYQQKPGQAPRLLIYSGSTLQSGIPARFSGSGSGTDFTLTISSLEPEDFAVYYCQQHDNSPYTFGQGTKLEIK
notes: Fab on phage pIX
For B10, in experiment [1], the “Signal (% of Lc16Hc7)” value was 120%.

B11: mAb with Lc 3G01 (Lc6 variant) and Hc2 (antibody, V domains shown)
VH: QVTLKESGPVLVKPTETLTLTCTVSGFSLSTYGMGVGWIRQPPGKALEWLAHIWWDDVKRYNPALKSRLTISKDTSKSQVVLTMTNMDPVDTATYYCARMGSDYDVWFDYWGQGTLVTVSS
VL: EIVLTQSPATLSLSPGERATLSCRASKSISKYLAWYQQKPGQAPRLLIYSGSTLQSGIPARFSGSGSGTDFTLTISSLEPEDFAVYYCQQPLDVPYTFGQGTKLEIK
notes: human IgG1
B11: in experiment [2], the “% Ra2 Binding Inhibition” value came out at 68.4%.

B12: mAb with Lc 5H04 (Lc6 variant) and Hc2 (antibody, V domains shown)
VH: QVTLKESGPVLVKPTETLTLTCTVSGFSLSTYGMGVGWIRQPPGKALEWLAHIWWDDVKRYNPALKSRLTISKDTSKSQVVLTMTNMDPVDTATYYCARMGSDYDVWFDYWGQGTLVTVSS
VL: EIVLTQSPATLSLSPGERATLSCRASKSISKYLAWYQQKPGQAPRLLIYSGSTLQSGIPARFSGSGSGTDFTLTISSLEPEDFAVYYCQQHDYAPYTFGQGTKLEIK
notes: human IgG1
On to B12, for which, in experiment [2], the “% Ra2 Binding Inhibition” value came out at 66.1%.

B13: Fab clone without printed name, L-CDR3 Q D G del (IL-13-62 library) (Fab, V domains shown)
VH: QVTLKESGPVLVKPTETLTLTCTVSGFSLSTYGMGVGWIRQPPGKALEWLAHIWWDDVKRYNPALKSRLTISKDTSKSQVVLTMTNMDPVDTATYYCARMGSDYDVWFDYWGQGTLVTVSS
VL: EIVLTQSPATLSLSPGERATLSCRASKSISKYLAWYQQKPGQAPRLLIYSGSTLQSGIPARFSGSGSGTDFTLTISSLEPEDFAVYYCQQQDGPYTFGQGTKLEIK
notes: as for B1
For the molecule B13, the “Signal (% of Lc16Hc7)” value in experiment [1] is 184%.

B14: Fab clone 2D04 (IL-13-62 library) (Fab, V domains shown)
VH: QVTLKESGPVLVKPTETLTLTCTVSGFSLSTYGMGVGWIRQPPGKALEWLAHIWWDDVKRYNPALKSRLTISKDTSKSQVVLTMTNMDPVDTATYYCARMGSDYDVWFDYWGQGTLVTVSS
VL: EIVLTQSPATLSLSPGERATLSCRASKSISKYLAWYQQKPGQAPRLLIYSGSTLQSGIPARFSGSGSGTDFTLTISSLEPEDFAVYYCQQQDSPYTFGQGTKLEIK
notes: as for B1
B14: in experiment [1], the “Signal (% of Lc16Hc7)” value came to 100%.

B15: mAb with Lc 3D01 (Lc6 variant) and Hc2 (antibody, V domains shown)
VH: QVTLKESGPVLVKPTETLTLTCTVSGFSLSTYGMGVGWIRQPPGKALEWLAHIWWDDVKRYNPALKSRLTISKDTSKSQVVLTMTNMDPVDTATYYCARMGSDYDVWFDYWGQGTLVTVSS
VL: EIVLTQSPATLSLSPGERATLSCRASKSISKYLAWYQQKPGQAPRLLIYSGSTLQSGIPARFSGSGSGTDFTLTISSLEPEDFAVYYCQQHVGGPYTFGQGTKLEIK
notes: human IgG1
As for B15, in experiment [2], the “% Ra2 Binding Inhibition” value stood at 58.5%.

B16: mAb with Lc 3G02 (Lc6 variant) and Hc2 (antibody, V domains shown)
VH: QVTLKESGPVLVKPTETLTLTCTVSGFSLSTYGMGVGWIRQPPGKALEWLAHIWWDDVKRYNPALKSRLTISKDTSKSQVVLTMTNMDPVDTATYYCARMGSDYDVWFDYWGQGTLVTVSS
VL: EIVLTQSPATLSLSPGERATLSCRASKSISKYLAWYQQKPGQAPRLLIYSGSTLQSGIPARFSGSGSGTDFTLTISSLEPEDFAVYYCQQHLNGPYTFGQGTKLEIK
notes: human IgG1
Take B16: in experiment [2], the “% Ra2 Binding Inhibition” value is 66.9%.

B17: mAb with Lc 5D03 (Lc6 variant) and Hc2 (antibody, V domains shown)
VH: QVTLKESGPVLVKPTETLTLTCTVSGFSLSTYGMGVGWIRQPPGKALEWLAHIWWDDVKRYNPALKSRLTISKDTSKSQVVLTMTNMDPVDTATYYCARMGSDYDVWFDYWGQGTLVTVSS
VL: EIVLTQSPATLSLSPGERATLSCRASKSISKYLAWYQQKPGQAPRLLIYSGSTLQSGIPARFSGSGSGTDFTLTISSLEPEDFAVYYCQQHSYGPYTFGQGTKLEIK
notes: human IgG1
For B17, the “% Ra2 Binding Inhibition” value in experiment [2] came out at 72.8%.

B18: Fab clone 1A05 (IL-13-62 library) (Fab, V domains shown)
VH: QVTLKESGPVLVKPTETLTLTCTVSGFSLSTYGMGVGWIRQPPGKALEWLAHIWWDDVKRYNPALKSRLTISKDTSKSQVVLTMTNMDPVDTATYYCARMGSDYDVWFDYWGQGTLVTVSS
VL: EIVLTQSPATLSLSPGERATLSCRASKSISKYLAWYQQKPGQAPRLLIYSGSTLQSGIPARFSGSGSGTDFTLTISSLEPEDFAVYYCQQHDYAPYTFGQGTKLEIK
notes: Fab on phage pIX
As for B18, the “Signal (% of Lc16Hc7)” value in experiment [1] was found to be 136%.

B19: mAb with Lc 5A02 (Lc6 variant) and Hc2 (antibody, V domains shown)
VH: QVTLKESGPVLVKPTETLTLTCTVSGFSLSTYGMGVGWIRQPPGKALEWLAHIWWDDVKRYNPALKSRLTISKDTSKSQVVLTMTNMDPVDTATYYCARMGSDYDVWFDYWGQGTLVTVSS
VL: EIVLTQSPATLSLSPGERATLSCRASKSISKYLAWYQQKPGQAPRLLIYSGSTLQSGIPARFSGSGSGTDFTLTISSLEPEDFAVYYCQQQDYGPYTFGQGTKLEIK
notes: human IgG1
For the molecule B19, the “% Ra2 Binding Inhibition” value in experiment [2] is 78.4%.

B20: Fab clone 1C06 (IL-13-62 library) (Fab, V domains shown)
VH: QVTLKESGPVLVKPTETLTLTCTVSGFSLSTYGMGVGWIRQPPGKALEWLAHIWWDDVKRYNPALKSRLTISKDTSKSQVVLTMTNMDPVDTATYYCARMGSDYDVWFDYWGQGTLVTVSS
VL: EIVLTQSPATLSLSPGERATLSCRASKSISKYLAWYQQKPGQAPRLLIYSGSTLQSGIPARFSGSGSGTDFTLTISSLEPEDFAVYYCQQHSWGPYTFGQGTKLEIK
notes: Fab on phage pIX
Turning to B20, the “Signal (% of Lc16Hc7)” value in experiment [1] was 172%.
